# Source: patent publication US10865390B2, “Alcohol dehydrogenase mutant and application thereof in synthesis of diaryl chiral alcohols” (Jiangnan University, priority 2018, dated 2020)
# Substitutions are numbered along the chain they refer to. Names may count otherwise. “And” between values parts separate entries of the source, which are not always exact repeats. Equal values may be shown once.
# B1: M6: alcohol dehydrogenase mutant E214G, S237C, Q136N, S196G, F161V of SEQ ID No. 2 (protein)
# chain: MSVLISGASGYIAKHIVRVLLEQNYKVIGTVRSQDKADKLLKQYNNPNLSYEIVPEIANLDAFDDIFKKHGKEIKYVIHAASPVNFGAKDLEKDLVIPAINGTKNMFEAIKKYAPDTVERVVMTASYASIMTPHRNNDPTLTLDEETWNPVTEENAYENVVTAYCASKTFAEKEAWKFVKENSDAVKFKLTTIHPGFVFGPQNFDEDVTKKLNGTCEIINGLLHAPFDTKVEKTHFCQFIDVRDVAKTHVLGFQKDELINQRLLLCNGAFSQQDIVNVFNEDFPELKGQFPPEDKDTDLNKGVTGCKIDNEKTKKLLAFEFTPFHKTIHDTVYQILHKEGRV
# modifications: Protein translated from synthetic DNA
# B2: M4: alcohol dehydrogenase mutant E214G, S237C, Q136N of SEQ ID No. 2 (protein)
# chain: B1 chain with V161F, G196S
# modifications: Protein translated from synthetic DNA
# B3: M5: alcohol dehydrogenase mutant E214G, S237C, Q136N, S196G of SEQ ID No. 2 (protein)
# chain: B1 chain with V161F
# modifications: Protein translated from synthetic DNA
# B4: KpADH: wild type alcohol dehydrogenase KpADH, amino acid sequence shown in SEQ ID No. 2 (protein)
# chain: B1 chain with N136Q, V161F, G196S, G214E, C237S
# modifications: Protein translated from synthetic DNA
# How the values were obtained:
# Type in all cases: biochemical
# [1] = test system: O=C(c1ccc(Cl)cc1)c1ccccn1; assay: Kinetic analysis of KpADH mutant M4 with CPMK; details: other: M4, NADPH, pH 7.0, 30° C.
# Method: In an embodiment of the present disclosure, the mutant includes the substitution of glycine for glutamic acid at position 214 of the amino acid sequence shown in SEQ ID No. 2, the substitution of cysteine for serine at position 237, and the substitution of asparaginate for glutamine at position 136, which is named M4.
# (§1) Adopting a total reaction system of 200 μL including: 1.0 mM NADPH, 1.0 mM substrate CPMK and sodium phosphate buffer (PBS, 100 mM, pH 7.0), fully and evenly mixing, maintaining at 30° C. for 2 min, adding an appropriate amount of enzyme solution, and detecting the change in light absorption at 340 nm.
# (§2) The enzyme activity was calculated by the following formula: Enzyme activity (U)=EW×V×10^3/(6220×1);
# (§3) in the formula, EW is the change in absorbance at 340 nm in 1 min; V is the volume of a reaction solution in mL; 6220 is the molar extinction coefficient of NADPH in L/(mol·cm); and 1 is the optical path distance in cm. One activity unit (U) corresponds to the amount of enzyme required to catalyze the oxidation of 1 μmol NADPH per minute under the above conditions.
# (§4) A column used for purification was a nickel affinity column HisTrap FF crude, and purification was achieved through affinity chromatography using a histidine tag on recombinant protein. The nickel column was equilibrated with a solution A first, a crude enzyme solution was loaded, a penetrating peak was further eluted off using the solution A, and after equilibrium, a solution B (20 mM sodium phosphate, 500 mM NaCl, and 1000 mM imidazole, pH 7.4) was used for gradient elution to elute off the recombinant protein bound to the nickel column, so as to obtain the recombinant alcohol dehydrogenase mutant. The purified protein was subjected to activity measurement (CPMK as substrate, and NADPH as coenzyme) and SDS-PAGE analysis. […] The purified alcohol dehydrogenase protein was then replaced into a Tris-HCl (100 mM, pH 7.0) buffer using a Hi Trap Desalting column (GE Healthcare).
# (§5) The activity of KpADH at different substrate concentrations and coenzyme concentrations was determined, and a double reciprocal curve was made based on the reciprocal of activity and substrate concentration to calculate kinetic parameters.
# [2] = test system: O=C(c1ccc(Cl)cc1)c1ccccn1; assay: Kinetic analysis of KpADH mutant M3 with CPMK; details: other: M3, NADPH, pH 7.0, 30° C.
# Method: In an embodiment of the present disclosure, the mutant includes the substitution of glycine for glutamic acid at position 214 of the alcohol dehydrogenase with the amino acid sequence shown in SEQ ID No. 2, and the substitution of cysteine for serine at position 237, which is named M3.
# as §1, §2, §3, §4, §5
# [3] = test system: O=C(c1ccc(Cl)cc1)c1ccccn1; assay: Kinetic analysis of KpADH mutant M2 with CPMK; details: other: M2, NADPH, pH 7.0, 30° C.
# Method: In an embodiment of the present disclosure, the mutant includes the substitution of valine for glutamic acid at position 214 of the alcohol dehydrogenase with the amino acid sequence shown in SEQ ID No. 2, which is named M2.
# as §1, §2, §3, §4, §5
# [4] = Substrate specificity: reduction of prochiral carbonyl compound (Table 2)
# Excerpt: The reduction on prochiral carbonyl compounds by the alcohol dehydrogenase mutants obtained in Example 2 was studied, and the studied prochiral carbonyl compounds include (4-chlorophenyl)-(pyridin-2-yl)-methanone (CPMK), phenyl-(pyridin-2-yl)-methanone, (4-chlorophenyl)-(phenyl)-methanone, (4-bromophenyl)-(phenyl)-methanone, (4-fluorophenyl)-(pyridin-2-yl)-methanone, (4-methoxyphenyl)-(phenyl)-methanone, acetophenone, 4-chloroacetophenone and 2-(4-chlorophenyl)acetyl chloride.
# [5] = Stereoselectivity analysis of CPMK reduction (chiral liquid chromatography, Table 1); details: product CPMA from CPMK
# Method: (§6) In an embodiment of the present disclosure, the (R)- and (S)-CPMA is chromatographed by taking 100 μL reaction solution, adding 500 μL ethyl acetate, shaking for 1-2 min, centrifuging at 12,000 rpm for 2-5 min, placing a supernatant into a centrifuge tube, and after an organic phase is naturally volatilized completely, adding 500 μL chromatographic pure ethanol for chiral liquid chromatography of a conversion rate and an ee value. The specific chromatographic conditions are as follows: Daicel Chiralcel OB-H (5 μm, 250 mm×4.6 mm) liquid chromatography column, mobile phases are n-hexane: ethanol: ethanolamine (90:10:0.01, v/v/v), the flow rate is 1 mL/min, the column temperature is 30° C., the UV detection wavelength is 254 nm, the injection volume is 10 μL, and the retention time for (R)-CPMA and that for (S)-CPMA are 11.14 min and 12.34 min respectively.
# Method for determining optical purity ee:
# As: molar concentration of (S)-CPMA obtained by liquid chromatography; and AR: molar concentration of (R)-CPMA obtained by liquid chromatography.
# as §5
# [6] = 20 mL biocatalytic system: asymmetric reduction of CPMK; details: for ee value of final reduction product: 20 mL biocatalytic system, enzyme 10 g/L, 30° C., pH 7.5; for time required to achieve a conversion rate close to 99.9%: CPMK concentration 200 mM
# Method: as §6
# A 20 mL biocatalytic system was established: 100 mM potassium phosphate buffer (pH 7.0), and the alcohol dehydrogenase mutants M6 and M7 obtained in Example 2 as well as wild KpADH 10 g/L, CPMK 100 mM, 200 mM and 500 mM were added (substrate added in batches). […]
# [7] = CPMK 100 mM, reaction time 12 h
# [8] = CPMK 100 mM, reaction time 24 h
# [9] = CPMK 200 mM, reaction time 12 h
# [10] = CPMK 200 mM, reaction time 24 h
# [11] = CPMK 500 mM, reaction time 12 h
# [12] = CPMK 500 mM, reaction time 24 h
molecule,measurement,setting,value
alcohol dehydrogenase KpADH mutant M4 (E214G/S237C/Q136N of SEQ ID No. 2) (Vanderwaltozyma polyspora DSM 70294; E214G/Q136N/S237C),Km,[1],861 µM
same,Vmax,[1],10.2 µmol/min/mg
same,kcat,[1],6.76 s⁻¹
same,kcat/Km,[1],7850 M⁻¹ s⁻¹
alcohol dehydrogenase KpADH mutant M3 (E214G/S237C of SEQ ID No. 2) (Vanderwaltozyma polyspora DSM 70294; E214G/S237C),Km,[2],632 µM
same,Vmax,[2],9.32 µmol/min/mg
same,kcat,[2],6.16 s⁻¹
same,kcat/Km,[2],9740 M⁻¹ s⁻¹
alcohol dehydrogenase KpADH mutant M2 (E214V of SEQ ID No. 2) (Vanderwaltozyma polyspora DSM 70294; E214V),Km,[3],574 µM
same,Vmax,[3],17.5 µmol/min/mg
same,kcat,[3],11.7 s⁻¹
same,kcat/Km,[3],14200 M⁻¹ s⁻¹
B1,ee value of product,[4]; substrate drawing 2,6.81%
same,ee value of product,[4]; substrate drawing 3,91.7%
same,ee value of product,[4]; substrate drawing 5,64.2%
same,ee value of product,[4]; substrate drawing 7,95.3%
same,ee value of product,[4]; substrate drawing 8,82.1%
same,ee,[5],97.8% and 99.8%
same,ee value of final reduction product,[6],99.5%
same,Conversion rate,"[6]; CPMK 100 mM, reaction time 1 h",24.6%
same,Conversion rate,"[6]; CPMK 100 mM, reaction time 2 h",54.6%
same,Conversion rate,"[6]; CPMK 100 mM, reaction time 3 h",69.4%
same,Conversion rate,"[6]; CPMK 100 mM, reaction time 4 h",80.2%
same,Conversion rate,"[6]; CPMK 100 mM, reaction time 6 h",95.2%
same,Conversion rate,"[6]; CPMK 100 mM, reaction time 8 h",97.2%
same,Conversion rate,[6]; [7],98.2%
same,Conversion rate,[6]; [8],99.6%
same,Conversion rate,"[6]; CPMK 200 mM, reaction time 1 h",19.1%
same,Conversion rate,"[6]; CPMK 200 mM, reaction time 2 h",36.4%
same,Conversion rate,"[6]; CPMK 200 mM, reaction time 3 h",52.8%
same,Conversion rate,"[6]; CPMK 200 mM, reaction time 4 h",70.6%
same,Conversion rate,"[6]; CPMK 200 mM, reaction time 6 h",89.7%
same,Conversion rate,"[6]; CPMK 200 mM, reaction time 8 h",92.2%
same,Conversion rate,[6]; [9],95.4%
same,Conversion rate,[6]; [10],99.2%
same,Conversion rate,"[6]; CPMK 500 mM, reaction time 1 h",12.8%
same,Conversion rate,"[6]; CPMK 500 mM, reaction time 2 h",22.1%
same,Conversion rate,"[6]; CPMK 500 mM, reaction time 3 h",30.6%
same,Conversion rate,"[6]; CPMK 500 mM, reaction time 4 h",65.3%
same,Conversion rate,"[6]; CPMK 500 mM, reaction time 6 h",77.9%
same,Conversion rate,"[6]; CPMK 500 mM, reaction time 8 h",87.6%
same,Conversion rate,[6]; [11],90.2%
same,Conversion rate,[6]; [12],99.5%
same,time required to achieve a conversion rate close to 99.9%,[6],24 h
B2,ee value of product,[4]; substrate drawing 1 (CPMK),80.6%
same,ee value of product,[4]; substrate drawing 2,20.7%
same,ee value of product,[4]; substrate drawing 3,38.6%
same,ee value of product,[4]; substrate drawing 4,66.5%
same,ee value of product,[4]; substrate drawing 5,49.1%
same,ee value of product,[4]; substrate drawing 6,82.6%
same,ee value of product,[4]; substrate drawing 7,91.5%
same,ee value of product,[4]; substrate drawing 8,57.7%
same,ee value of product,[4]; substrate drawing 9,99.3%
same,ee,[5],88.0%
B3,ee value of product,[4]; substrate drawing 1 (CPMK),87.7%
same,ee value of product,[4]; substrate drawing 2,15.5%
same,ee value of product,[4]; substrate drawing 3,62.0%
same,ee value of product,[4]; substrate drawing 4,70.9%
same,ee value of product,[4]; substrate drawing 5,59.5%
same,ee value of product,[4]; substrate drawing 6,81.7%
same,ee value of product,[4]; substrate drawing 7,95.6%
same,ee value of product,[4]; substrate drawing 8,49.1%
same,ee value of product,[4]; substrate drawing 9,99.9%
same,ee,[5],93.5%
B4,ee value of product,[4]; substrate drawing 1 (CPMK),81.9%
same,ee value of product,[4]; substrate drawing 2,26.3%
same,ee value of product,[4]; substrate drawing 3,71.4%
same,ee value of product,[4]; substrate drawing 4,69.2%
same,ee value of product,[4]; substrate drawing 5,25.3%
same,ee value of product,[4]; substrate drawing 6,14.9%
same,ee value of product,[4]; substrate drawing 7,59.2%
same,ee value of product,[4]; substrate drawing 8,67.1%
same,ee value of product,[4]; substrate drawing 9,77.8%
same,ee,[5],82% and 82.5%
same,ee value of final reduction product,[6],82%
same,Conversion rate,"[6]; CPMK 100 mM, reaction time 1 h",47.76%
same,Conversion rate,"[6]; CPMK 100 mM, reaction time 2 h",77.9%
same,Conversion rate,"[6]; CPMK 100 mM, reaction time 3 h",87.1%
same,Conversion rate,"[6]; CPMK 100 mM, reaction time 4 h",96.5%
same,Conversion rate,"[6]; CPMK 100 mM, reaction time 6 h",98.7%
same,Conversion rate,"[6]; CPMK 100 mM, reaction time 8 h",99.6%
same,Conversion rate,[6]; [7],>99.9%
same,Conversion rate,[6]; [8],>99.9%
same,Conversion rate,"[6]; CPMK 200 mM, reaction time 1 h",25.6%
same,Conversion rate,"[6]; CPMK 200 mM, reaction time 2 h",36.9%
same,Conversion rate,"[6]; CPMK 200 mM, reaction time 3 h",50.5%
same,Conversion rate,"[6]; CPMK 200 mM, reaction time 4 h",62.8%
same,Conversion rate,"[6]; CPMK 200 mM, reaction time 6 h",85.3%
same,Conversion rate,"[6]; CPMK 200 mM, reaction time 8 h",97.4%
same,Conversion rate,[6]; [9],99.4%
same,Conversion rate,[6]; [10],99.7%
same,Conversion rate,"[6]; CPMK 500 mM, reaction time 1 h",11.7%
same,Conversion rate,"[6]; CPMK 500 mM, reaction time 2 h",20.1%
same,Conversion rate,"[6]; CPMK 500 mM, reaction time 3 h",44.8%
same,Conversion rate,"[6]; CPMK 500 mM, reaction time 4 h",59.6%
same,Conversion rate,"[6]; CPMK 500 mM, reaction time 6 h",80.2%
same,Conversion rate,"[6]; CPMK 500 mM, reaction time 8 h",93.2%
same,Conversion rate,[6]; [11],95.6%
same,Conversion rate,[6]; [12],99.2%
same,time required to achieve a conversion rate close to 99.9%,[6],12 h
